From patent publication US20250121064A1 (CARSGEN LIFE SCIENCES, published 2025) come the findings set out here.

The target of the assay is T1, human GPRC5D on cells (human, UniProt Q9NZD1 1-345).
T1 construct: MM.1S and NCI-H929 cells express it endogenously; also called huGPRC5D; CHOK1-huGPRC5D
Put plainly: flow cytometry on CHOK1-huGPRC5D cells. For orientation: Flow cytometry measures light scatter and fluorescence of single cells or particles in a stream.

T1 sequence (Q9NZD1 whole entry): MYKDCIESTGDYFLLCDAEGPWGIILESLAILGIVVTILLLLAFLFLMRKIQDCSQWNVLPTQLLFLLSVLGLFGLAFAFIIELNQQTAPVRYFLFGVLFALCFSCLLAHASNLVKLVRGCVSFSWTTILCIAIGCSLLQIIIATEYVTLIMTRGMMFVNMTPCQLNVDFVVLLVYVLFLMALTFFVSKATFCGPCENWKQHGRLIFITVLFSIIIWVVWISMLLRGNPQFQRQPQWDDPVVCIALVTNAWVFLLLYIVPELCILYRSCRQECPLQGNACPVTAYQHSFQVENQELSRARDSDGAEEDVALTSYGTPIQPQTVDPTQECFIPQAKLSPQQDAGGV

B1: hybridoma antibody AB1 (IgG2b-k) (antibody, V domains shown)
VH: EVQLQQSGPEVVKPGASMKISCKASGYSFTGYTMNWVKQSHGKNFEWIGLINPYNGGTSYNQKFKGKATLTVDKSSSTAYMELLSLTSEDSAVYYCTRGGFRAWFAFWGQGTLVTVSA
VL: DIQMTQSPSSLSASLGERVSLTCRASQDIGSNLNWLQQEPDGTIKRLIYATSILDSGVPKRFSGSRSGSDYSLTISSLESEDFVDYYCLQYATFPNTFGGGTKLEIKR
notes: Mouse hybridoma mIgG, IgG2b kappa
The term EC50 denotes the concentration at which the effect is half-maximal. A higher EC50 goes with a need for much substance. B1 registered an EC50 of 1.69 nM.

B2: hybridoma antibody AB2 (IgG3-k) (antibody, V domains shown)
VH: VVKLVESGGGLVQPGGSLKLSCAASGFTFSNYGMSWVRQTPDTRLELVATINSNGGNTYYPDSVKGRFTISRDNAKNTLYLQMSSLKSEDTAIYYCVRAYSLTMDYWGQGTSVTVSS
VL: DVVMTQTPLSLPVSLGDQASISCRSSQSLVHSNGNTYLHWYLQKPGQSPKLLIYKVSNRFSGVPDRFSGSGSGTDFTLKIIRVEAEDLGVYFCSQSTHVPPTFRAGTKLELKR
notes: Mouse hybridoma mIgG, IgG3 kappa
Turning to B2, the half-maximal effective concentration (EC50) stood at 1.93 nM.
